The values below come from paper PMC4130638, “Structure of a Stapled Peptide Antagonist Bound to Nutlin-Resistant Mdm2” (PLoS ONE, 2014).

Positions of bridges follow the written chain, without caps; N, C: chain ends. Non-standard residues stand in square brackets, D forms with d. S8 = C=CCCCCCC[C@](C)(N)C(=O)O; S5 = C=CCCC[C@](C)(N)C(=O)O; FAM = carboxyfluorescein

In experiment [1] the target is T1, Mdm2-M62A (amino acids 6-125) (UniProt Q00987 6-125, M62A).
T1 construct: Made from the wild-type pGEX-6P-1 construct by QuickChange mutagenesis; also called Nutlin-resistant Mdm2; mutant Mdm2 (6-125); source: E. coli BL21(DE3) pLysS, purified (GSTrap, on-column PreScission cleavage, Resource S cation exchange)
The experiment is described as follows: fluorescence polarisation; competitive fluorescence anisotropy: M06 titrated against a constant 150 nM Mdm2 (6-125) wild type or M62A and 50 nM FAM-12-1 peptide; PBS pH 7.4, 3% DMSO, 0.1% Tween-20; apparent Kd; 3-5 titrations. The note with it: both partners purified.

Experiment [2] deals with T2, Mdm2 (amino acids 6-125), wild type (UniProt Q00987 6-125).
T2 construct: Cloned in pGEX-6P-1; also called Mdm2 (6-125); wild-type Mdm2; source: E. coli BL21(DE3) pLysS, purified (GSTrap, on-column PreScission cleavage, Resource S cation exchange)
The experiment is described as above. The note with it: both partners purified.

The target in experiment [3] is T2, Mdm2 (amino acids 6-125), wild type. The experiment in a line: not stated; Kds told in the discussion of the structures without method, construct or citation.

B1: carboxyfluorescein (FAM) labelled 12-1 peptide (peptide)
peptide: {FAM}-RFMDYWEGL-NH2
notes: 12-1 peptide, tracer of the fluorescence anisotropy assay
With B1, the binding result in experiment [1] and in experiment [2] was “binds” throughout.

B2: M06 stapled peptide (peptide)
chain: Ac-TSF[S5]EYWYLL[S8]-NH2
modifications: staple 4-11
SMILES: CC(=O)N[C@H](C(=O)N[C@@H](CO)C(=O)N[C@@H](Cc1ccccc1)C(=O)N[C@@]1(C)CCCC=CCCCCCC[C@@](C)(C(N)=O)NC(=O)[C@H](CC(C)C)NC(=O)[C@H](CC(C)C)NC(=O)[C@H](Cc2ccc(O)cc2)NC(=O)[C@H](Cc2c[nH]c3ccccc23)NC(=O)[C@H](Cc2ccc(O)cc2)NC(=O)[C@H](CCC(=O)O)NC1=O)[C@@H](C)O
In the case of B2, the Kd was found to be 63.1 ± 17.8 nM in experiment [1], 107 ± 47.9 nM in experiment [2] and 128 nM in experiment [3].
